Changes are numbered by the printed parent chain.
B1: 2/99 VH6/VL7 (antibody, V domains shown)
VH: QQLVETGGGLIQPGGSLRLSCAASGFSLSSYAMSWVRQAPGKGLEWIGYIWSGGSTDYADSVKGRFTISRDNSKNTLYLQMNSLRAEDTAVYYCARRYGTSYPDYGDANGFDPWGQGTLVTVSS
VL: AIQLTQSPSSLSASVGDRVTITCRASQSISSYLAWYQQKPGKAPKLLIYRASTLASGVPSRFSGSGSGTDFTLTISSLQPEDFATYYCQQSYSSSNVDNTFGGGTKVEIK
B2: 2/99 VH21/VL7 (antibody, V domains shown)
VH: QSMQESGPGLVKPSQTLSLTCTVSGFSLSSYAMSWIRQHPGKGLEWIGYIWSGGSTDYASWAKSRVTISVDTSKNQVSLKLSSVTAADTAVYYCARRYGTSYPDYGDANGFDPWGQGTLVTVSS
VL: B1 VL
B3: 2/99 VH12/VL7 (antibody, V domains shown)
VH: QVQLQESGPGLVKPSETLSLTCTVSGFSLSSYAMSWIRQPPGKGLEWIGYIWSGGSTDYNPSLKSRVTISVDTSKNQFSLKLSSVTAADTAVYYCARRYGTSYPDYGDANGFDPWGQGTLVTVSS
VL: B1 VL
B4: 2/99 VH22/VL8 (antibody, V domains shown)
VH: B2 VH with I36V
VL: B1 VL with I2Y, A34S
B5: 2/99 VH7/VL8 (antibody, V domains shown)
VH: B1 VH with D60S, S61W, V62A
VL: B1 VL with I2Y, A34S
B6: 2/99 VH21/VL8 (antibody, V domains shown)
VH: B2 VH
VL: B1 VL with I2Y, A34S
B7: 2/99 VH23-DANG/VL7 (antibody, V domains shown)
VH: QSMQESGPGLVKPSQTLSLTCTVSGFSLSSYAMSWIRQHPGKGLEWIGYIWSGGSTDYASWAKSRVTISKTSTTVSLKLSSVTAADTAVYYCARRYGTSYPDYGDANGFDPWGQGTLVTVSS
VL: B1 VL
B8: 2/99 VH22/VL7 (antibody, V domains shown)
VH: B2 VH with I36V
VL: B1 VL
B9: 2/99 VH19/VL7 (antibody, V domains shown)
VH: B2 VH with S60P, W61S, A62L, V77F
VL: B1 VL
B10: 2/99 VH15/VL7 (antibody, V domains shown)
VH: B2 VH with S2Q, M3L, Q15E, I36V, H39P, A59N, S60P, W61S, A62L
VL: B1 VL
B11: 2/99 VH8/VL8 (antibody, V domains shown)
VH: QQLVETGGGLIQPGGSLRLSCAASGFSLSSYAMSWVRQAPGKGLEWIGYIWSGGSTDYASWAKGRFTISKTSTTLYLQMNSLRAEDTAVYYCARRYGTSYPDYGDANGFDPWGQGTLVTVSS
VL: B1 VL with I2Y, A34S
B12: 2/99 VH8/VL7 (antibody, V domains shown)
VH: B11 VH
VL: B1 VL
B13: 2/99 VH9/VL7 (antibody, V domains shown)
VH: B1 VH with V4L, T6S, I11V, S27T, L28F, I47V, R96K
VL: B1 VL
B14: 2/99 VH20/VL7 (antibody, V domains shown)
VH: B2 VH with S60P, W61S, A62L
VL: B1 VL
B15: 2/99 VH18/VL8 (antibody, V domains shown)
VH: B3 VH with E16Q, P40H, N60A
VL: B1 VL with I2Y, A34S
B16: 2/99 VH6/VL8 (antibody, V domains shown)
VH: B1 VH
VL: B1 VL with I2Y, A34S
B17: 2/99 VH16/VL7 (antibody, V domains shown)
VH: B2 VH with S2Q, M3L, Q15E, I36V, H39P, A59N, S60P, W61S, A62L, Q116P
VL: B1 VL
B18: 2/99 VH9/VL8 (antibody, V domains shown)
VH: B1 VH with V4L, T6S, I11V, S27T, L28F, I47V, R96K
VL: B1 VL with I2Y, A34S
B19: 2/99 VH15/VL8 (antibody, V domains shown)
VH: B2 VH with S2Q, M3L, Q15E, I36V, H39P, A59N, S60P, W61S, A62L
VL: B1 VL with I2Y, A34S
B20: 2/99 VH1/VL8 (antibody, V domains shown)
VH: B1 VH with Q1V, I47V
VL: B1 VL with I2Y, A34S
B21: 2/99 VH16/VL8 (antibody, V domains shown)
VH: B2 VH with S2Q, M3L, Q15E, I36V, H39P, A59N, S60P, W61S, A62L, Q116P
VL: B1 VL with I2Y, A34S
B22: 2/99 VH12/VL8 (antibody, V domains shown)
VH: B3 VH
VL: B1 VL with I2Y, A34S
B23: 2/99 VH2/VL8 (antibody, V domains shown)
VH: EVQLVETGGGLIQPGGSLRLSCAASGFSLSSYAMSWVRQAPGKGLEWVGYIWSGGSTDYADSVKGRFTISRDNSKNTLYLQMNSLRAEDTAVYYCARRYGTSYPDYGDANGFDPWGQGTLVTVSS
VL: B1 VL with I2Y, A34S
B24: 2/99 VH19/VL8 (antibody, V domains shown)
VH: B2 VH with S60P, W61S, A62L, V77F
VL: B1 VL with I2Y, A34S
B25: 2/99 VH17/VL7 (antibody, V domains shown)
VH: QQLQESGPGLVKPSETLSLTCTVSGFSLSSYAMSWVRQPPGKGLEWIGYIWSGGSTDYNPSLKSRVTISKDTSKNQVSLKLSSVTAADTAVYYCARRYGTSYPDYGDANGFDPWGPGTLVTVSS
VL: B1 VL
B26: 2/99 VH5/VL8 (antibody, V domains shown)
VH: B1 VH with Q2S, L3M, V4E, I47V, Q116P
VL: B1 VL with I2Y, A34S
B27: 2/99 VH17/VL8 (antibody, V domains shown)
VH: B25 VH
VL: B1 VL with I2Y, A34S
B28: 2/99 VH23-DANG/VL8 (antibody, V domains shown)
VH: B7 VH
VL: B1 VL with I2Y, A34S
B29: 2/99 VH11/VL7 (antibody, V domains shown)
VH: B1 VH with V4L, T6S, I11V, I47V
VL: B1 VL
B30: 2/99 VH13/VL7 (antibody, V domains shown)
VH: B3 VH with F78V
VL: B1 VL
B31: 2/99 VH7/VL7 (antibody, V domains shown)
VH: B1 VH with D60S, S61W, V62A
VL: B1 VL
B32: 2/99 VH13/VL8 (antibody, V domains shown)
VH: B3 VH with F78V
VL: B1 VL with I2Y, A34S
B33: 2/99 VH18/VL7 (antibody, V domains shown)
VH: B3 VH with E16Q, P40H, N60A
VL: B1 VL
B34: 2/99 VH11/VL8 (antibody, V domains shown)
VH: B1 VH with V4L, T6S, I11V, I47V
VL: B1 VL with I2Y, A34S
B35: 2/99 VH20/VL8 (antibody, V domains shown)
VH: B2 VH with S60P, W61S, A62L
VL: B1 VL with I2Y, A34S

Target: T1, human transferrin receptor (recombinant, for surface plasmon resonance) (human, UniProt P02786 89-760)
T1 construct: also called huTfR; human transferrin receptor-biotinylated
T1 sequence (P02786 89-760 limits assumed): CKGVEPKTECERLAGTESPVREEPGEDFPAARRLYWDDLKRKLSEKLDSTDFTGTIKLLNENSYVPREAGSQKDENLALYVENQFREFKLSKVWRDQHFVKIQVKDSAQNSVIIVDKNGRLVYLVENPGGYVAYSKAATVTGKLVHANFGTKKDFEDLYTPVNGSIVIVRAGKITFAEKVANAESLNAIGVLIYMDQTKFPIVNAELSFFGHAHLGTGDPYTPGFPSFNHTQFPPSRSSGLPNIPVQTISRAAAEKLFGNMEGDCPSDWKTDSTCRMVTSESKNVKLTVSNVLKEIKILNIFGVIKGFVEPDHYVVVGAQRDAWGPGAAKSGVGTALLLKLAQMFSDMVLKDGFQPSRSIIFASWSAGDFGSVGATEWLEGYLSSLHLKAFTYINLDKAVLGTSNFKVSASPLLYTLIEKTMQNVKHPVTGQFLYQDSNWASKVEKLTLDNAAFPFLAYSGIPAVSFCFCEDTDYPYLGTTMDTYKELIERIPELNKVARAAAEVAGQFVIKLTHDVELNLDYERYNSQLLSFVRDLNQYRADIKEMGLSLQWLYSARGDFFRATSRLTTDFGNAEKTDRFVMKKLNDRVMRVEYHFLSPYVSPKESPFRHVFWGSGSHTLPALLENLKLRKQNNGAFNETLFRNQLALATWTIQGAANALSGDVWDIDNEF
Assay: SPR 25C

Row | koff [s⁻¹] | Binder
1 | 0.00563 | B1
2 | 0.00238 | B2
3 | 0.00771 | B3
4 | 0.00165 | B4
5 | 0.00172 | B5
6 | 0.00174 | B6
7 | 0.00155 | B7
8 | 0.00337 | B8
9 | 0.001 | B9
10 | 0.00543 | B10
11 | 0.00116 | B11
12 | 0.00231 | B12
13 | 0.00761 | B13
14 | 0.00714 | B14
15 | 0.00677 | B15
16 | 0.00301 | B16
17 | 0.00525 | B17
18 | 0.00523 | B18

Row | koff [s⁻¹] | Binder
19 | 0.00209 | B19
20 | 0.00485 | B20
21 | 0.00197 | B21
22 | 0.00531 | B22
23 | 0.00394 | B23
24 | 0.00671 | B24
25 | 0.00233 | B25
26 | 0.00378 | B26
27 | 0.00111 | B27
28 | 0.000941 | B28
29 | 0.00781 | B29
30 | 0.00668 | B30
31 | 0.00366 | B31
32 | 0.00247 | B32
33 | 0.00766 | B33
34 | 0.00552 | B34
35 | 0.00658 | B35
